Experimental data published in patent US20170166655A1 (published 2017).
Positions count from the first letter of the chain named. Names and notes keep the numbering of the source. Like-named read-outs stand apart in the source and are kept apart here.

B1: IgG2_S239D/I332E (antibody)
chain: ASTKGPSVFPLAPCSRSTSESTAALGCLVKDYFPEPVTVSWNSGALTSGVHTFPAVLQSSGLYSLSSVVTVPSSNFGTQTYTCNVDHKPSNTKVDKTVERKCCVECPPCPAPPVAGPDVFLFPPKPKDTLMISRTPEVTCVVVDVSHEDPEVQFNWYVDGVEVHNAKTKPREEQFNSTFRVVSVLTVVHQDWLNGKEYKCKVSNKGLPAPEEKTISKTKGQPREPQVYTLPPSREEMTKNQVSLTCLVKGFYPSDIAVEWESNGQPENNYKTTPPMLDSDGSFFLYSKLTVDKSRWQQGNVFSCSVMHEALHNHYTQKSLSLSPGK
B2: IgG2 WT (antibody)
chain: B1 chain with D118S, E211I
B3: WT IgG2 (antibody)
chain: B1 chain with D118S, E211I
B4: IgG2_S239D/I332E/G327A (antibody)
chain: B1 chain with G206A

What was measured:
Experiment in all cases: SPR
[1] = target: human V158 FcγRIIIa, extracellular region (human, UniProt P08637 17-208)
Sequence of human V158 FcγRIIIa, extracellular region (P08637 17-208 F176V): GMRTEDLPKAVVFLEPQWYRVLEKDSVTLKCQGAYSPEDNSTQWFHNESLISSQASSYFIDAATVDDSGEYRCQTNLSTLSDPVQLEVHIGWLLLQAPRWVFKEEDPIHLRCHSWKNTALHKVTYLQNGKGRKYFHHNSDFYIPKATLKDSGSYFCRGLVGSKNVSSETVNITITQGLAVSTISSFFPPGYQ

[2] = target: T1, human FcγRIIb, extracellular region (human, UniProt P31994 43-217)
T1 chain: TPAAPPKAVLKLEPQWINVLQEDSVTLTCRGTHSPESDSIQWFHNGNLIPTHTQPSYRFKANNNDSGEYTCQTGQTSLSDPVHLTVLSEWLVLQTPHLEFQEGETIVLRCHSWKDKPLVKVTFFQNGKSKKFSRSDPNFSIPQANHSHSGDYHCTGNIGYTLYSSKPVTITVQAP

[3] = target: T2, human R131 FcγRIIa, extracellular region (human, UniProt P12318 34-217)
T2 chain: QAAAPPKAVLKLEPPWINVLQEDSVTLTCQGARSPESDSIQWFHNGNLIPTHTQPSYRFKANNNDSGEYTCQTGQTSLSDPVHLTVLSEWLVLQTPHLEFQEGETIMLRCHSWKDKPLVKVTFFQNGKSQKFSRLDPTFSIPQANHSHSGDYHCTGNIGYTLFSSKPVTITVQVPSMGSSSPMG

[4] = target: human F158 FcγRIIIa, extracellular region (human, UniProt P08637 17-208)
Sequence of human F158 FcγRIIIa, extracellular region (P08637 17-208): as the sequence (P08637 17-208 F176V) above, with V160F counted along it

[5] = target: T3, human FcγRI, extracellular region (human, UniProt P12314 16-292)
T3 chain: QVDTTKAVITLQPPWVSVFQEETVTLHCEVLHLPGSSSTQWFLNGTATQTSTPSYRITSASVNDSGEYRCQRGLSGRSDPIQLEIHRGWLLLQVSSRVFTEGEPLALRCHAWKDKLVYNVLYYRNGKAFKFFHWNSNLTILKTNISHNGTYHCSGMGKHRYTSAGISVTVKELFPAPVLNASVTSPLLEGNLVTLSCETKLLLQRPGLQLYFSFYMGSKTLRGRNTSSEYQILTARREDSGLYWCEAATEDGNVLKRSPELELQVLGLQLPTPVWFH

[6] = target: T4, human H131 FcγRIIa, extracellular region (human, UniProt P12318 34-217)
T4 chain: T2 chain with R134H

[7] = target: T2, human R131 FcγRIIa, extracellular region
[8] = target: T4, human H131 FcγRIIa, extracellular region

Binder | Kd [1] [nM] | Kd [2] [nM] | Kd [3] [nM] | Kd [4] [nM] | Kd [5] [nM] | Kd [6] [nM] | Kd [7] [nM] | Kd [8] [nM]
B1 | 30.3 | 682 | 128 | 81.7 | 24.2 | 160 | – | –
B2 | – | – | 4270 | – | – | 525 | – | –
B3 | – | – | – | – | – | – | 4270 | 525
B4 | 19.4 | 232 | 161 | 36.3 | 13.2 | 122 | – | –
